Laboratory results taken from PMC11574021, “CEP192 localises mitotic Aurora-A activity by priming its interaction with TPX2” (The EMBO Journal, 2024).
Substitutions are numbered along the chain they refer to. Names may count otherwise. Values belong to the molecule of their own block, whether it stands above or below them. Where no end group is shown, it is not given here. FAM = 5(6)-carboxyfluorescein

Experiments:
[1] = biological target: FAM-CEP192 501–533 (human) (UniProt Q8TEP8); experiment: fluorescence polarisation; direct fluorescence anisotropy: Aurora-A diluted across the plate, 50 nM tracer FAM-CEP192 501–533; 25 mM HEPES pH 7.5, 150 mM NaCl, 2 mM DTT, 5 mM MgCl2, 0.01% Tween 20; 1 h at room temperature
Aurora-A = details: cited from earlier work; for effect on Aurora-A activity: ADP-Glo based assay, ref Park et al. 2023 Figure 3 F-H
From the text: page 22: have elected to test PLK1 localization. In the absence of a direct test, they could nevertheless refer to the observations of Joukov et al. We find that PLK1 localisation is normal in ∆11 cells and have include d this new data (Fig. EV8) -Figure 5A-B: The scheme could be made clearer. Why is CEP192 depicted in blue and grey in panel A, green and grey in panel B (grey in scheme of excision sites). Why not use color consistently? […] We have ch ...

human CEP192 468–533 = biological target: T1, human CEP192 468–533 (human, UniProt Q8TEP8 468-533); experiment: ITC; 250 μM Aurora-A in the syringe, 25 μM CEP192 construct in the cell; 25 °C; 20 mM tris pH 7.5, 200 mM NaCl, 10% glycerol, 5 mM MgCl2
T1 construct: also called CEP192_(506-527_F); source: E. coli B834 RIL, purified (HisTrap, TEV cleavage, SEC); for crystallisation co-expressed with Aurora-A^M7KD and co-purified; not shown: His6, N-terminal, cleaved; SUMO, N-terminal, cleaved
T1 sequence (looked up): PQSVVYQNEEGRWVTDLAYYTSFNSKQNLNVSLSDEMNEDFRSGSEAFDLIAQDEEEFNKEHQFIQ

[2] = biological target: T2, Aurora-A^CAKD (Aurora-A kinase domain, aa 122–403 C290A, C393A), unphosphorylated (human, UniProt O14965 122-403, C290A | C393A); experiment: fluorescence polarisation; competition: 25 μM Aurora-A kinase domain preincubated with 100 nM FAM-TACC3 522-536, CEP192 competitor serially diluted; 25 mM HEPES pH 7.5, 150 mM NaCl, 2 mM DTT, 5 mM MgCl2, 0.01% Tween 20; details: both partners purified
T2 construct: Aurora-A kinase domain, human, residues 122-403, variant lacking surface cysteines; also called Aurora-A 122–403 C290A C393A; unphosphorylated Aurora-A^CAKD; source: E. coli RIL, co-expressed with lambda phosphatase, purified (HisTrap, TEV cleavage, SEC); not shown: His6, N-terminal, cleaved
T2 sequence (looked up): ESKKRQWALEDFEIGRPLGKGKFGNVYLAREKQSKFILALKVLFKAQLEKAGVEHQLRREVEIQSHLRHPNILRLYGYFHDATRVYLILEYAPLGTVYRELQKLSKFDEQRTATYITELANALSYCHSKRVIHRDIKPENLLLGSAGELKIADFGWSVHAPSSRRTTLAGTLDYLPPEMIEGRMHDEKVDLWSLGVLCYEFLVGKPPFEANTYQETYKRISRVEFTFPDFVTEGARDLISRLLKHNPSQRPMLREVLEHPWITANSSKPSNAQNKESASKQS

[3] = biological target: T3, unphosphorylated Aurora-A CAKD (Homo sapiens, UniProt O14965, C290A/C393A); experiment: Fluorescence anisotropy competition with FAM-CEP192 501-533, unphosphorylated Aurora-A; assay type: binding; details: competition with 100 nM FAM-CEP192 501-533, 10 μM unphosphorylated Aurora-A CAKD, n = 3
T3 construct: 10 μM Aurora-A kinase domain (phosphorylated or unphosphorylated C290A C393A 122–403); His (N, cleaved yes); made in house; host or cells: E. coli RIL, co-expressed with lambda phosphatase
T3 sequence (O14965 122-403 C290A/C393A): T2 sequence (looked up)
Method: (§1) Assays were performed in 25 mM HEPES pH 7.5, 150 mM NaCl, 2 mM DTT, 5 mM MgCl2, 0.01% Tween 20. For CEP192 and TPX2 competition assays 10 μM Aurora-A kinase domain (phosphorylated or unphosphorylated C290A C393A 122–403) was preincubated on ice with 100 nM FAM-TPX2 7-43 or 100 nM FAM-CEP192 501–533. For TACC3 competition, due to weaker binding, 25 μM Aurora-A kinase domain (phosphorylated or unphosphorylated C290A C393A 122–403) was preincubated with 100 nM FAM-TACC3 522-536. Serial dilutions of competitor (CEP192) were performed in triplicate into a low volume 384-well black plate, before the premixed Aurora-A and tracer were added. A control row included no tracer. Plates were left incubating for 1 h at room temperature before the fluorescence anisotropy was measured using a HIDEX plate reader, with excitation at 485 nm and emission at 535 nm. For direct binding experiments, the assay was performed as above, but the Aurora-A (122–403 C290A C393A or point mutants) was diluted across the plate from high to low concentration, before the addition of 50 nM tracer (FAM-CEP192 501–533) to three replicate rows. Buffer only was added to the control row.
(§2) Fluorescence anisotropy data were processed using Microsoft Excel to calculate intensity and anisotropy using the equation listed in (Yeo et al, [2013]). The IC50 and Kd values were calculated using Origin (OriginLab) where the data fitted to a sigmoid and are summarised in Appendix Table S3.

[4] = biological target: T4, phosphorylated Aurora-A CAKD (Homo sapiens, UniProt O14965, C290A/C393A); experiment: Fluorescence anisotropy competition with FAM-CEP192 501-533, phosphorylated Aurora-A; assay type: binding; details: competition with 100 nM FAM-CEP192 501-533, 10 μM phosphorylated Aurora-A CAKD, n = 3
T4 construct: 10 nM Aurora-A 122–403 C290A C393A phosphorylated protein; His (N, cleaved yes); made in house; host or cells: E. coli B834 (no lambda phosphatase)
T4 sequence (O14965 122-403 C290A/C393A): T2 sequence (looked up)
Method: as §1, §2

[5] = biological target: T4, phosphorylated Aurora-A CAKD; experiment: ADP-Glo kinase assay, kemptide substrate; assay type: biochemical
Method: Reactions were initiated by the addition of 10 μM ATP and 100 μM kemptide as substrate (Cambridge Bioscience Ltd). The reactions were incubated at room temperature for 60 min before 5 μl was transferred into 5 ul of ADP-Glo Reagent (Promega) in a 384-well low volume low binding plate (Greiner Bio-one). After a further 40 min at room temperature, 10 μl of kinase detection reagent was added to each well, and the reaction was allowed to incubate for an additional 30 min. Luminescence was measured on a HIDEX Sense plate reader (HIDEX) using a 1 s integration time. Control data was subtracted from the luminescence and three repeats were averaged before being fitted to a sigmoidal plot using Origin (OriginLab), where IC50 and EC50 values were calculated.

[6] = biological target: T2, Aurora-A^CAKD (Aurora-A kinase domain, …); experiment: fluorescence polarisation; competition: 10 μM unphosphorylated Aurora-A^CAKD preincubated with 100 nM FAM-TPX2 7-43, CEP192 competitor serially diluted; 25 mM HEPES pH 7.5, 150 mM NaCl, 2 mM DTT, 5 mM MgCl2, 0.01% Tween 20; details: both partners purified

Molecule: Aurora-A^KD R151A (Aurora-A 122–403 R151A) (from UniProt O14965 122-403) (domain or fragment)
Kd [1]: > 10 µM

Molecule: Aurora-A^KD F165D (Aurora-A 122–403 F165D) (from UniProt O14965 122-403) (domain or fragment)
Kd [1]: > 5 µM

Molecule: CEP192 506-536: short CEP192 fragment used by Park et al 2023 (EDFRSGSEAFDLIAQDEEEFNKEHQFIQEEN; UniProt Q8TEP8 506-536, looked up, fragment)
effect on Aurora-A activity (Aurora-A): no effect seen

Molecule: Aurora-A^KD F165D/R205A (Aurora-A 122–403 R205A F165D) (from UniProt O14965 122-403) (domain or fragment)
Kd (human CEP192 468–533): 26 µM
stoichiometry N (human CEP192 468–533): 0.87

B1: CEP192 1-995: longer CEP192 fragment used by Park et al 2023 (protein, UniProt Q8TEP8 1-995, looked up, fragment)
chain: MEDFRGIAEESFPSFLTNSLFGNSGILENVTLSSNLGLPVAVSTLARDRSSTDNRYPDIQASYLVEGRFSVPSGSSPGSQSDAEPRERLQLSFQDDDSISRKKSYVESQRLSNALSKQSALQMETAGPEEEPAGATESLQGQDLFNRASPLEQAQDSPIDFHLQSWMNNKEPKIVVLDAGKHFEDKTLKSDLSHTSLLENEKLILPTSLEDSSDDDIDDEMFYDDHLEAYFEQLAIPGMIYEDLEGPEPPEKGFKLPTNGLRQANENGSLNCKFQSENNSSLISLDSHSSETTHKESEESQVICLPGTSNSIGTGDSRRYTDGMLPFSSGTWGTEKEIENLKGIVPDLNSECASKDVLVKTLRAIDVKLNSDNFHDANANRGGFDLTDPVKQGAECPHQNKTVLHMDGCLDTETPTVSIQENVDVASLKPISDSGINFTDAIWSPTCERRTCECHESIEKNKDKTDLPQSVVYQNEEGRWVTDLAYYTSFNSKQNLNVSLSDEMNEDFRSGSEAFDLIAQDEEEFNKEHQFIQEENIDAHNTSVALGDTSWGATINYSLLRKSRSTSDLDKDDASYLRLSLGEFFAQRSEALGCLGGGNNVKRPSFGYFIRSPEKREPIALIRKSDVSRGNLEKEMAHLNHDLYSGDLNEQSQAQLSEGSITLQVEAVESTSQVDENDVTLTADKGKTEDTFFMSNKPQRYKDKLPDSGDSMLRISTIASAIAEASVNTDPSQLAAMIKALSNKTRDKTFQEDEKQKDYSHVRHFLPNDLEKSNGSNALDMEKYLKKTEVSRYESALENFSRASMSDTWDLSLPKEQTTQDIHPVDLSATSVSVRAPEENTAAIVYVENGESENQESFRTINSSNSVTNRENNSAVVDVKTCSIDNKLQDVGNDEKATSISTPSDSYSSVRNPRITSLCLLKDCEEIRDNRENQRQNECVSEISNSEKHVTFENHRIVSPKNSDLKNTSPEHGGRGSEDEQESFRPSTSPLSHSS
effect on Aurora-A activity (Aurora-A): no effect seen

B4: CEP192 468-533 F490D/F508D/I518D: CEP192 468-533 variant replacing hydrophobic residues recognising two regions of N-lobe (protein)
chain: T1 sequence (looked up) with F23D, F41D, I51D
modifications: left off: His6, N-terminal, cleaved | SUMO, N-terminal, cleaved
notes: CEP192 468-533 variant replacing hydrophobic residues recognising two regions of N-lobe
IC50 [3]: > 10 µM
IC50 [4]: > 10 µM

B5: CEP192 468-533 F508D/I518D/F525D: CEP192 468-533 triple mutant (protein, UniProt Q8TEP8 468-533, looked up, variant F508D I518D F525D)
chain: T1 sequence (looked up) with F41D, I51D, F58D
IC50 [3]: > 10 µM
IC50 [4]: > 10 µM

B6: CEP192 521-757: recombinant GST-tagged CEP192 521-757 with the Xenopus CEP192 binding site (Joukov et al 2010) (protein, UniProt Q8TEP8 521-757, looked up, fragment)
chain: DEEEFNKEHQFIQEENIDAHNTSVALGDTSWGATINYSLLRKSRSTSDLDKDDASYLRLSLGEFFAQRSEALGCLGGGNNVKRPSFGYFIRSPEKREPIALIRKSDVSRGNLEKEMAHLNHDLYSGDLNEQSQAQLSEGSITLQVEAVESTSQVDENDVTLTADKGKTEDTFFMSNKPQRYKDKLPDSGDSMLRISTIASAIAEASVNTDPSQLAAMIKALSNKTRDKTFQEDEKQK
modifications: GST tag
effect on Maskin/TACC3 phosphorylation by Aurora-A (Aurora-A; Xenopus egg extract, ref Joukov et al. (2010) Figure 4C): lower levels of Maskin/TACC3 phosphorylation
effect on Aurora-A autophosphorylation at Thr288 and Histone H3 phosphorylation (Aurora-A; recombinant GST-tagged CEP192, western blot, ref Joukov et al. (2010) Figure 3G): prevents autophosphorylation of Aurora-A at Thr288

Second part, led by results:

binding result [2]: binds
B2: FAM-TACC3 522-536 (peptide, UniProt Q9Y6A5 522-536, looked up)
peptide: {FAM}-EESFRDPAEVLGTGA
notes: Made on Rink amide resin and labelled on resin after synthesis, so N-terminal label and C-terminal amide are likely; source: synthetic peptide

IC50 [3]: 6.9 µM
IC50 [4]: 5.39 µM
IC50 ([5]; 10 nM phosphorylated Aurora-A CAKD, 10 μM ATP, 100 μM kemptide, 60 min, n = 3): > 1 µM
B3: CEP192 468-533 Y487A/F490A: CEP192 468-533 mutant, two F-pocket residues replaced with alanine (protein)
chain: T1 sequence (looked up) with Y20A, F23A
modifications: left off: His6, N-terminal, cleaved | SUMO, N-terminal, cleaved
notes: CEP192 468-533 mutant, two F-pocket residues replaced with alanine
effect on Aurora-A kinase activity ([5]; ADP-Glo, phosphorylated Aurora-A CAKD, kemptide, in words): less potent and less complete

IC50 [2]: 29 µM
B7: CEP192 501–533 peptide (unlabelled) (peptide, UniProt Q8TEP8 501-533, looked up)
peptide: SDEMNEDFRSGSEAFDLIAQDEEEFNKEHQFIQ
notes: Probably synthesised as the labelled peptides (Rink amide resin); source: peptide

binding result [6]: binds
B8: FAM-TPX2 7-43 (peptide, UniProt Q9ULW0 7-43, looked up)
peptide: {FAM}-SYSYDAPSDFINFSSLDDEGDTQNIDSWFEEKANLEN
notes: TPX2, residues 7-43; Made on Rink amide resin and labelled on resin after synthesis, so N-terminal label and C-terminal amide are likely; source: synthetic peptide
